Laboratory results reported in the RNAGym collection of RNA variant scans (doi:10.1021/acssynbio.7b00057).

B1: Pistol ribozyme (parent)
chain: GGGUCGUUGUUCCAUAAUCGCGUGGAUAUGGCACGCAAGUUUCUACCGGGCACCGUAAAUGUCCGACUGGAGCCGUUCGGGCGGCUAUAAACAGACCUCAGGCCCGAAGCGUGGCGGCACCUGCCGCCGGUGGUAAAAAAGAUCGGAAGAGCACACGUCU

Variants of: B1
Experiment: aptazyme ON/OFF ratio, guanine; higher = stronger switching; co-transcriptional cleavage with and without guanine

Compared with U7A U8A G9A U10A C12A, U7A U8A G9A U10A C12G is lower in “aptazyme ON/OFF ratio” value: 1.28 for the first, 1.24 for the second.

Compared with U7A U8A G9A U10A C12U, U7A G9U U11A C12U C13U is lower in “aptazyme ON/OFF ratio” value: 1.23 for the first, 1.22 for the second.

Compared with U7A G9U U11A C12U C13A, U7A G9U U11A C12U C13G is lower in “aptazyme ON/OFF ratio” value: 1.41 for the first, 1.28 for the second.

Compared with U7A U8A G9A U10A U11G C12A C13G, U7A U8A G9A U10A U11G C12A C13A is lower in “aptazyme ON/OFF ratio” value: 1.24 for the first, 1.16 for the second.

Going from U7A U8A G9A U10A U11G C12A C13U to U7A U8A G9A U10A U11G C12U C13U, the “aptazyme ON/OFF ratio” value rises from 1.24 to 1.3.

First: U7A U8A G9A U10A U11G C12U C13A
Second: U7A U8A G9A U10A U11G C12U C13G
The “aptazyme ON/OFF ratio” value of the first is higher: 1.3 for the first, 1.24 for the second.

Compared with U7A G9U U11A C13U, U7A G9U U11A C13G is lower in “aptazyme ON/OFF ratio” value: 1.1 for the first, 1.08 for the second.

Compared with U7A G9U U11A C13A, U7A G9U U10G C12G C13G is higher in “aptazyme ON/OFF ratio” value: 1.12 for the first, 1.25 for the second.

First: U7A G9U U10G C12G C13A
Second: U7A G9U U10G C12G C13U
The “aptazyme ON/OFF ratio” value of the first is lower: 1.18 for the first, 1.25 for the second.

Compared with U7A U8A G9A U10C C12A C13A, U7A U8A G9A U10C C12A C13G is lower in “aptazyme ON/OFF ratio” value: 1.13 for the first, 1.03 for the second.

Compared with U7A U8A G9A U10C C12A C13U, U7A G9U U10C U11A C12U C13A is higher in “aptazyme ON/OFF ratio” value: 1 for the first, 1.23 for the second.

First: U7A G9U U10C U11A C12U C13U
Second: U7A G9U U10C U11A C12U C13G
The “aptazyme ON/OFF ratio” value of the first is higher: 1.22 for the first, 1.2 for the second.

Compared with U7A G9U U10G U11G C12A C13G, U7A G9U U10G U11G C12A C13U is higher in “aptazyme ON/OFF ratio” value: 1.12 for the first, 1.21 for the second.

Compared with U7A G9U U10G U11G C12A C13A, U7A G9U U10G U11G C13A is higher in “aptazyme ON/OFF ratio” value: 1.11 for the first, 1.22 for the second.

Going from U7A G9U U10G U11G C13G to U7A G9U U10G U11G C13U, the “aptazyme ON/OFF ratio” value falls from 1.17 to 1.11.

Going from U7A G9U U10G U11G C12U C13A to U7A G9U U10G U11G C12U C13G, the “aptazyme ON/OFF ratio” value falls from 1.26 to 1.15.

Compared with U7A G9U U10G U11G C12U C13U, U7A G9U U10C C12A is lower in “aptazyme ON/OFF ratio” value: 1.51 for the first, 1.14 for the second.

First: U7A G9U U10C C12U
Second: U7A G9U U10C C12G
The “aptazyme ON/OFF ratio” value of the first is lower: 1.22 for the first, 1.29 for the second.

First: U7A G9U U10G U11G C12U
Second: U7A G9U U10G U11G C12G
The “aptazyme ON/OFF ratio” value of the first is lower: 1.16 for the first, 1.43 for the second.

First: U7A G9U U10G U11G C12A
Second: U7A U8A G9A U10A C12G C13G
The “aptazyme ON/OFF ratio” value of the first is lower: 1.13 for the first, 1.15 for the second.

Going from U7A U8A G9A U10A C12G C13U to U7A U8A G9A U10A C12G C13A, the “aptazyme ON/OFF ratio” value falls from 1.28 to 1.24.

Going from U7A G9U U10C C12U C13U to U7A G9U U10C C12U C13G, the “aptazyme ON/OFF ratio” value falls from 1.2 to 1.07.

Compared with U7A G9U U10C C12U C13A, U7A G9U U10C U11A C12G C13U is lower in “aptazyme ON/OFF ratio” value: 1.14 for the first, 1.12 for the second.

Compared with U7A G9U U10C U11A C12G C13G, U7A G9U U10C U11A C12G C13A is lower in “aptazyme ON/OFF ratio” value: 1.14 for the first, 1.13 for the second.

First: U7A U8A G9A U10C U11G C13A
Second: U7A U8A G9A U10C U11G C13G
The “aptazyme ON/OFF ratio” value of the first is lower: 1.08 for the first, 1.24 for the second.

First: U7A G9U U10G C12A
Second: U7A G9U U10G C12U
The “aptazyme ON/OFF ratio” value of the first is lower: 1.15 for the first, 1.43 for the second.

Going from U7A G9U U10G C12G to U7A G9U U10G U11C C12U, the “aptazyme ON/OFF ratio” value falls from 1.13 to 1.06.

U7A G9U U10G U11C C12G and U7A G9U U10G U11C C12A are the same in “aptazyme ON/OFF ratio” value: 1.21 for the first, 1.21 for the second.

First: U7A U8A G9A U10C U11A C12U C13A
Second: U7A U8A G9A U10C U11A C12U C13G
The “aptazyme ON/OFF ratio” value of the first is lower: 1.1 for the first, 1.16 for the second.

Going from U7A U8A G9A U10C U11A C12U C13U to U7A U8A G9A U10C U11C C13A, the “aptazyme ON/OFF ratio” value falls from 1.03 to 1.01.

First: U7A U8A G9A U10C U11C C13G
Second: U7A U8A G9A U10C U11C C13U
The “aptazyme ON/OFF ratio” value of the first is lower: 0.997 for the first, 1.06 for the second.

Going from U7A U8A C13U to U7A U8A C13A, the “aptazyme ON/OFF ratio” value falls from 1.69 to 1.38.

Compared with U7A U8A C13G, U7A U8A G9A U10A U11C C12U C13U is lower in “aptazyme ON/OFF ratio” value: 1.22 for the first, 1.14 for the second.

First: U7A U8A G9A U10A U11C C12U C13G
Second: U7A U8A G9A U10A U11C C12U C13A
The “aptazyme ON/OFF ratio” value of the first is lower: 1.08 for the first, 1.17 for the second.

Compared with U7A G9U U10G C13A, U7A G9U U10G C13U is higher in “aptazyme ON/OFF ratio” value: 1.33 for the first, 1.54 for the second.

First: U7A G9U U10G C13G
Second: U7A U8A G9A U10A U11A C12G
The “aptazyme ON/OFF ratio” value of the first is lower: 1.14 for the first, 1.27 for the second.

Going from U7A U8A G9A U10A U11A C12A to U7A U8A G9A U10A U11A C12U, the “aptazyme ON/OFF ratio” value falls from 1.26 to 1.17.

First: U7A G9U U10C U11C C12G C13A
Second: U7A G9U U10C U11C C12G C13G
The “aptazyme ON/OFF ratio” value of the first is lower: 1.02 for the first, 1.04 for the second.

Compared with U7A G9U U10C U11C C12G C13U, U7A U8A G9A U10C U11C C12U C13U is higher in “aptazyme ON/OFF ratio” value: 1.01 for the first, 1.05 for the second.

Compared with U7A U8A G9A U10C U11C C12U C13G, U7A U8A G9A U10C U11C C12U C13A is higher in “aptazyme ON/OFF ratio” value: 1.03 for the first, 1.06 for the second.

Going from U7A G9U U10C U11C C12A C13A to U7A G9U U10C U11C C12A C13G, the “aptazyme ON/OFF ratio” value rises from 1.03 to 1.06.

With U7A G9U U10C U11C C12A C13U the “aptazyme ON/OFF ratio” value was 1.07.
